The chains are these.
B1: Mutation 1-1 (antibody, V domains shown)
VH: EVQLQQSGAELVKPGASVKLSCTASGFNLKDYYMHWMKQRTEQGLDWIGRIDPEDAETKYAPEFQGKATITADTSSNTAYLQLSTLTSEDTAVYYCARYYSSYLPFVYWGQGTLVTASA
VL: DVVMTQTPLSLSVSLGDQASISCRSSQSILYSNRHTYLHWYLQKPGQSPKLLIFQLSNRFSGVPDRFSGSGSGTDFTLKINRVEAEDLGVYFCSQSTHLPYTFGSGTKLEIKR
notes: built as for Mutation 1
B2: Mutation 1-9 (antibody, V domains shown)
VH: EVQLQQSGAELVKPGASVKLSCTASGFNLKDYYMHWMKQRTEQGLDWIGRIDPEDGETKYAPEFQGKATITADTSSNTAYLQLSTLTSEDTAVYYCARYYSSYIPFVYWGQGTLVTASA
VL: DVVMTQTPLSLSVSLGDQASISCRSSQSLLYSNRHTYLHWYLQKPGQSPKLLIFQISNRFSGVPDRFSGSGSGTDFTLKINRVEAEDLGVYFCSQSTHIPYTFGSGTKLEIKR
notes: built as for Mutation 1
B3: Mutation 1-5 (antibody, V domains shown)
VH: EVQLQQSGAELVKPGASVKLSCTASGFNLKDYYMHWMKQRTEQGLDWIGRIDPEDGETRYAPEFQGKATITADTSSNTAYLQLSTLTSEDTAVYYCARYYSSYIPFVYWGQGTLVTASA
VL: DVVMTQTPLSLSVSLGDQASISCRSSQSIIYSNRHTYLHWYLQKPGQSPKLLIFQISNRFSGVPDRFSGSGSGTDFTLKINRVEAEDLGVYFCSQSTHIPFTFGSGTKLEIKR
notes: built as for Mutation 1
B4: Mutation 1-7 (antibody, V domains shown)
VH: EVQLQQSGAELVKPGASVKLSCTASGFNIKDYYMHWMKQRTEQGLDWIGRIDPEDAETRYAPEFQGKATITADTSSNTAYLQLSTLTSEDTAVYYCARYYSSYIPFVYWGQGTLVTASA
VL: DVVMTQTPLSLSVSLGDQASISCRSSQSLIYSNRHTYLHWYLQKPGQSPKLLIFQISNRFSGVPDRFSGSGSGTDFTLKINRVEAEDLGVYFCSQSTHLPYTFGSGTKLEIKR
notes: built as for Mutation 1
B5: Mutation 1-2 (antibody, V domains shown)
VH: EVQLQQSGAELVKPGASVKLSCTASGFNIKDYFMHWMKQRTEQGLDWIGRIDPEDGETRYAPEFQGKATITADTSSNTAYLQLSTLTSEDTAVYYCARYYSSYVPFVYWGQGTLVTASA
VL: DVVMTQTPLSLSVSLGDQASISCRSSQSLIYSNRHTYLHWYLQKPGQSPKLLIFQVSNRFSGVPDRFSGSGSGTDFTLKINRVEAEDLGVYFCSQSTHIPFTFGSGTKLEIKR
notes: built as for Mutation 1
B6: Mutation 1-3 (antibody, V domains shown)
VH: EVQLQQSGAELVKPGASVKLSCTASGFNIKDYYMHWMKQRTEQGLDWIGRIDPEDGETKYAPEFQGKATITADTSSNTAYLQLSTLTSEDTAVYYCARYYSSYLPFVYWGQGTLVTASA
VL: DVVMTQTPLSLSVSLGDQASISCRSSQSLLYSNRHTYLHWYLQKPGQSPKLLIFQLSNRFSGVPDRFSGSGSGTDFTLKINRVEAEDLGVYFCSQSTHIPYTFGSGTKLEIKR
notes: built as for Mutation 1
B7: Mutation 1-8 (antibody, V domains shown)
VH: EVQLQQSGAELVKPGASVKLSCTASGFNLKDYFMHWMKQRTEQGLDWIGRIDPEDGETRYAPEFQGKATITADTSSNTAYLQLSTLTSEDTAVYYCARYYSSYLPFVYWGQGTLVTASA
VL: DVVMTQTPLSLSVSLGDQASISCRSSQSLIYSNRHTYLHWYLQKPGQSPKLLIFQLSNRFSGVPDRFSGSGSGTDFTLKINRVEAEDLGVYFCSQSTHLPFTFGSGTKLEIKR
notes: built as for Mutation 1

In the assay the target is T1, CTNI quality control recombinant protein (PK2-CTNI-1, 170120, produced by the applicant) (human, UniProt P19429 2-210, limits assumed).
T1 construct: also called cardiac troponin I
T1 sequence (P19429 2-210 limits assumed): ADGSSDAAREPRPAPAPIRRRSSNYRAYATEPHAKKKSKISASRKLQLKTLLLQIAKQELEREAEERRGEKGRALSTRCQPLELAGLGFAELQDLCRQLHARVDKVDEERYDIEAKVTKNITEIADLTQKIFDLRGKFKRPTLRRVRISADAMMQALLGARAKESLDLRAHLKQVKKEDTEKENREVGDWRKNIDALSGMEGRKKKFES
In words: AMC sensor kinetics, antibody captured, cTnI analyte. Here is the method:
Using the AMC sensor, the purified antibody was diluted with PBST to 10 μg/ml, and the CTNI quality control recombinant protein (PK2-CTNI-1, 170120, produced by the applicant) was serially diluted with PBST to 400 nmol/ml, 200 nmol/ml, 100 nmol/ml, 50 nmol/ml, 25 nmol/ml, 12.5 nmol/ml, 6.25 nmol/ml, and 0 nmol/ml.
The Kd is the constant that tells how readily two partners part at equilibrium. One may read the koff as the first-order rate constant of dissociation. The kon is the second-order rate constant of association. For the molecule B1, the equilibrium dissociation constant (Kd) came out at 0.865 nM, the koff came out at 0.000311 s⁻¹ and the kon is 359000 M⁻¹ s⁻¹.

On to B2, for which the Kd was 0.866 nM, the koff amounted to 9.18e-05 s⁻¹ and the kon worked out at 106000 M⁻¹ s⁻¹.

Consider B3, for which the Kd is 0.623 nM, the koff was 0.0001 s⁻¹ and the kon worked out at 161000 M⁻¹ s⁻¹.

With B4, the Kd came out at 0.804 nM, the koff stood at 0.00056 s⁻¹ and the kon was 697000 M⁻¹ s⁻¹.

Turning to B5, the Kd is 0.623 nM, the koff was determined as 0.000268 s⁻¹ and the on-rate (kon) came to 430000 M⁻¹ s⁻¹.

With B6, the Kd is 0.676 nM, the koff came to 0.000122 s⁻¹ and the kon is 181000 M⁻¹ s⁻¹.

For the molecule B7, the dissociation constant (Kd) stood at 0.303 nM, the koff is 2.58e-05 s⁻¹ and the association rate constant (kon) was determined as 85100 M⁻¹ s⁻¹.

The values above are taken from patent US20210340231A1 (FAPON BIOTECH, published 2021).
